# Measurements from article PMC11379828.
# T1: MBP-EFD (1-260 aa) (Arabidopsis thaliana, UniProt Q9M389 1-260)
# T1 sequence: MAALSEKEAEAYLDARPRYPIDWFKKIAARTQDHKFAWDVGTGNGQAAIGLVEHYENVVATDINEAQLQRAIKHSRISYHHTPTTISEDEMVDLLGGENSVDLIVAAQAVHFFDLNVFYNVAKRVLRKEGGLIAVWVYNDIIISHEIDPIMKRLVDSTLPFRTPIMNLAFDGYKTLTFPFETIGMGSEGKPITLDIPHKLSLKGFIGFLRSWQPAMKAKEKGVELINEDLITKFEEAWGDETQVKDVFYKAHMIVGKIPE
# T2: MBP-EFD (Arabidopsis thaliana, UniProt Q9M389 1-323)
# T2 sequence: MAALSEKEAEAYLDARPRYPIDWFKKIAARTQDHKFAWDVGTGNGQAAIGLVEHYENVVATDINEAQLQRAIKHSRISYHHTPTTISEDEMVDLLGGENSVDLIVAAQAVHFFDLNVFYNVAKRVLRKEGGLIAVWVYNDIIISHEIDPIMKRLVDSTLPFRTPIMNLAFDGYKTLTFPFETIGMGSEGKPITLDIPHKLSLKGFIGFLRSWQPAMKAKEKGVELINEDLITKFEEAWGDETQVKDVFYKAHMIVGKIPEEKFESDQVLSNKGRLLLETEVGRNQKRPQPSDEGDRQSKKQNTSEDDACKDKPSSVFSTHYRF
# B1: HB21 probe, unmethylated (HB21+1410) (dsDNA)
# DNA 1: ATCCTCTGTGACCATTGAAGCCAATCATACGACACCGTTTTTTGGAGATTACGACATCGGATTTGACGGTGAGGCTGACGAG
# DNA 2: CTCGTCAGCCTCACCGTCAAATCCGATGTCGTAATCTCCAAAAAACGGTGTCGTATGATTGGCTTCAATGGTCACAGAGGAT
# B2: HB21 probe, methylated (HB21+1410) (dsDNA)
# DNA 1: ATCCTCTGTGACCATTGAAGCCAATCATACGACACCGTTTTTTGGAGATTACGACATCGGATTTGACGGTGAGGCTGACGAG
# DNA 2: CTCGTCAGCCTCACCGTCAAATCCGATGTCGTAATCTCCAAAAAACGGTGTCGTATGATTGGCTTCAATGGTCACAGAGGAT
# modifications: 5-methylcytosine, positions not given
# Columns and labels:
# MBP-EFD (1-260 aa) = biological target: T1, MBP-EFD (1-260 aa); assay: EMSA
# MBP-EFD = biological target: T2, MBP-EFD; assay: EMSA
Binder,binding result (MBP-EFD (1-260 aa)),binding result (MBP-EFD)
B1,binds,binds
B2,binds,–
